In IntAct's records for PubMed 18303947:

B1: NMDA receptor synaptonuclear signaling and neuronal migration factor (Mus musculus), Q99NF2-1 (parent)
chain: MGAAASRRRALRSEAMSSVAAKVRAARAFGEYLSQSHPENRNGADHLLADAYSGHDGSPEMQPAPQNKRRLSLVSNGRYEGSISDEAVSGKPAIEGPQPHVYTISREPALLPGSEAEAIELAVVKGRRQRERHPHHHSQPLRASPGSSREDISRPCQSWAGSRQGSKECPGCAQLVPGPSSRAFGLEQPPLPEAPGRHKKLERMYSVDGVSDDVPIRTWFPKENLFSFQTATTTMQAISVFRGYAERKRRKRENDSASVIQRNFRKHLRMVGSRRVKAQTFAERRERSFSRSWSDPTPMKADTSHDSRDSSDLQSSHCTLDEACEDLDWDTEKGLEAMACNTEGFLPPKVMLISSKVPKAEYIPTIIRRDDPSIIPILYDHEHATFEDILEEIEKKLNIYHKGAKIWKMLIFCQGGPGHLYLLKNKVATFAKVEKEEDMIHFWKRLSRLMSKVNPEPNVIHIMGCYILGNPNGEKLFQNLRTLMTPYKVTFESPLELSAQGKQMIETYFDFRLYRLWKSRQHSKLLDFDDVL

Variants of: B1
Conditions: with Cabp1, O88751-1
Cabp1, O88751-1, sequence (O88751 whole entry): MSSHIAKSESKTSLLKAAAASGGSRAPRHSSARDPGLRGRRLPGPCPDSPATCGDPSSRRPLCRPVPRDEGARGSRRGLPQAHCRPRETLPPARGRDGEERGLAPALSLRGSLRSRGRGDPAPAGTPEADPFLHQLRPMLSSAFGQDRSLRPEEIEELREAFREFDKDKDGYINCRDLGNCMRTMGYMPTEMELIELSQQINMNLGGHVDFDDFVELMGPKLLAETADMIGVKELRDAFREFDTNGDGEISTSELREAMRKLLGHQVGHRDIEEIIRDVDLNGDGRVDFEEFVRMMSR

Row | effect of a mutation on the interaction | Variant
1 | disrupting interaction | MGAAASRRRALRSEAMSSVAAKVRAARAFGEYLSQSHPENRNGADHLLADAYSGHDGSPEMQPAPQNKRRLSLVSNGRYEGSISDEAVSGKPAIEGPQPHVYTISREPALLPGSEAEAIELAVVKGRRQRERHPHHHSQPLRASPGSSREDISRPCQSWAGSRQGSKECPGCAQLVPGPSSRAFGLEQPPLPEAPGRHKKLERMYSVDGVSDDVPIRTWFPKENLFSFQTATTTMQAISVERGYAERKRRKRENDSASVIQRNFRKHLRMVGSRRVKAQTFAERRERSFSRSWSDPTPMKADTSHDSRDSSDLQSSHCTLDEACEDLDWDTEKGLEAMACNTEGFLPPKVMLISSKVPKAEYIPTIIRRDDPSIIPILYDHEHATFEDILEEIEKKLNIYHKGAKIWKMLIFCQGGPGHLYLLKNKVATFAKVEKEEDMIHFWKRLSRLMSKVNPEPNVIHIMGCYILGNPNGEKLFQNLRTLMTPYKVTFESPLELSAQGKQMIETYFDFRLYRLWKSRQHSKLLDFDDVL [F241E]
